Target: GST-Rab6A Q72L (UniProt P20340 1-208, Q72L)
Test: GTPγS-loaded Rab6A

Chain of GST-Rab6A Q72L (P20340 whole entry Q72L): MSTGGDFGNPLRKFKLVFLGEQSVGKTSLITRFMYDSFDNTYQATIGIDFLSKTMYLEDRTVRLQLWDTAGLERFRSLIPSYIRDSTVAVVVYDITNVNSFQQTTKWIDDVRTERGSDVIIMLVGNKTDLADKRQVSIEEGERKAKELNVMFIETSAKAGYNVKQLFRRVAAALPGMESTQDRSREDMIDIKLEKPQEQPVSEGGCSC

B1: KIF1C-355-His (domain or fragment)
chain: MAGASVKVAVRVRPFNARETSQDAKCVVSMQGNTTSIINPKQSKDAPKSFTFDYSYWSHTSTEDPQFASQQQVYRDIGEEMLLHAFEGYNVCIFAYGQTGAGKSYTMMGRQEPGQQGIVPQLCEDLFSRVSENQSAQLSYSVEVSYMEIYCERVRDLLNPKSRGSLRVREHPILGPYVQDLSKLAVTSYADIADLMDCGNKARTVAATNMNETSSRSHAVFTIVFTQRCHDQLTGLDSEKVSKISLVDLAGSERADSSGARGMRLKEGANINKSLTTLGKVISALADMQSKKRKSDFIPYRDSVLTWLLKENLGGNSRTAMIAALSPADINYEETLSTLRYADRTKQIRNTVSVN
For B1, the Kd was 170 nM.

— article PMC4405695 (2015)
